# Assays:
# Cul1-Rbx1 (Homo sapiens) = Cul1-Rbx1 (Homo sapiens) (UniProt Q13616); details: cited from earlier work
# ^3xFLAGpIκBα = ^3xFLAGpIκBα (UniProt P25963); assay: co-IP
# Chain of ^3xFLAGpIκBα (P25963 whole entry): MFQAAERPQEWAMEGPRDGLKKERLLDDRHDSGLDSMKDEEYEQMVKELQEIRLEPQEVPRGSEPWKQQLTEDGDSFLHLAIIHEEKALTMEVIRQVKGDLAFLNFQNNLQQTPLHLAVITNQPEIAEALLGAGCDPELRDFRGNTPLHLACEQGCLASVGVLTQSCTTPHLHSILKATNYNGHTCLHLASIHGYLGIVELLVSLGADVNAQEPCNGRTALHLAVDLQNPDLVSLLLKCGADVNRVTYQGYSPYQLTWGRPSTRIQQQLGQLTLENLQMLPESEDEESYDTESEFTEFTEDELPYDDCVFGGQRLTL
# Chain of Dcn1 (Q96GG9 whole entry): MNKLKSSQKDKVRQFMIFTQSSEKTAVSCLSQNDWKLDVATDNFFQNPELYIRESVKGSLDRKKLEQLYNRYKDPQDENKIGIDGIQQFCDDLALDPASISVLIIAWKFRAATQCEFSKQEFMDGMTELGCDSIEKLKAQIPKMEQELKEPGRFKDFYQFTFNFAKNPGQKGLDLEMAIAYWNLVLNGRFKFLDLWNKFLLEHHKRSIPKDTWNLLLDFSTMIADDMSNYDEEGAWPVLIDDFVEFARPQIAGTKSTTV
koff (^3xFLAGpIκBα),Substance,Kd (Cul1-Rbx1 (Homo sapiens))
–,Dcn1 (from UniProt Q96GG9),1800 nM
3.3e-05 s⁻¹,β-TrCP (from UniProt Q9Y297 1-605) (natural protein),–

# Source: article PMC5836512
